Assay results as given in article PMC6159515.

Biological target: CglEndoMS-ΔCter, His-tagged (lacks the five carboxy-terminal residues of CglEndoMS) (Corynebacterium glutamicum ATCC 13032)
Test: SEC

**Q.** For “CglEndoMS-ΔCter, His-tagged (lacks the five carboxy-terminal residues of CglEndoMS) (domain or fragment)”, which stoichiometry N is on record?
**A.** Its stoichiometry N is 2.
